The DeepSol protein solubility set

experiment: soluble on expression in E. coli; label from the status in PepcDB or PDB records

Row | Sequence | soluble on expression in E. coli
1 | DYQIQISISDISEDRTEHQFTSNPEVKTPVGFEQHVESIPEMEDFGLSAAELMDESVPSDFQLDIGLVDDFLEIPSHETEVPQPKVASMQPDTNAKSQKPTVHRGELEAFIYGMGIDPNMVPSQNREQWFEQLGQSFSLMLIGLMETLHNRAVFKQTNRVNHTAFRKSENNPLKFSANLEDAIHNLYNRQTSSFLKPNAAIKEAFNDIENHEQALMQGVAGTVSSVMSLVEPNTIYSDALAKDNVINKVIPARKYAQSWKRFEGIHSQLTDELVNKESPFYLEDFAKHYELALKNKG | not soluble
2 | EDCQNLLKPCSLCEKRPRDGNIIHGRTGHLVTCFHCARRLKKAGASCPICKKEIQLVIKVFIA | soluble
3 | EEATSKGQNLNVEKINGEWFSILLASDKREKIEEHGSMRVFVEHIHVLENSLAFKFHTVIDGECSEIFLVADKTEKAGEYSVMYDGFNTFTILKTDYDNYIMFHLINEKDGKTFQLMELYGRKADLNSDIKEKFVKLCEEHGIIKENIIDLTKTNRCLKARE | soluble
4 | EGKTSSASPNNPQELKRRVIEEGFRRAGIEFGGLKGNSLEALRQFGDPMMATVVGLSLGFKGDVVLAGGTQMLAVAAILKGLGEDLSRFMIATTRWVVEDKSATFIKTAREIGIISYAADLDFSKSEFKGLRDYEKGYVKEGVGAGGATWLAV | not soluble
5 | EGLPVLAPVTKDTATSLYTIPFHDGASLVLDVAGLLVWSTCEGGQSPAEIACSSPTCLLANAYPAPGCPAPSCGSDRHDKPCTAYPSNPVTGACAAGSLFHTRFAANTTDGNKPVSEVNVRVLAACAPSKLLASLPRGSTGVAGLAGSGLALPSQVASAQKVPNKFLLCLPTGGPGVAIFGGGPLPWPQFTQSMDYTPLVAKGGSPAHYISARSIKVENTRVPISERALATGGVMLSTRLPYVLLRRDVYRPLVDAFTKALAAQPANGAPVARAVKPVAPFELCYDTKTLGNNPGGYWVPNVLLELDGGSDWAMTGKNSMVDVKPGTACVAFVEMKGVDAGDGSAPAVILGGAQMEDFVLDFDMEKKRLGFLRLPHFTGCSSFNFARST | soluble
6 | EHKIILYENPNFTGKKMEIVDDDVPSFHAHGYQEKVSSVRVQSGTWVGYQYPGYRGLQYLLEKGDYKDNSDFGAPHPQVQSVRRIRDMQGNPKIIIFEQENFQGHSHELSGPCPNLKETGMEKAGSVLVQAGPWVGYEQANCKGEQFVFEKGEYPRWDSWTSSRRTDSLSSLRPIK | soluble
7 | EHLRLDNDQREKYIQEARNMGSTIRQPKLSNLSPSVIAQTNWKFVEGLLKECRNKTKRMLVEKMGREAVELGHGEVNITGVEENTLIASLCDLLERIWSHGLQVKQGKSALWSHLLHYQENRQRKLTSGSLSTSGILLDSERRKSDASAVMSPLRISLIQDMRHIQNIGEIKTDVGKARAWVRLSMEKKLLSRHLKQLLSDHELTKKLYKRYAFLRCDDEKEQFLYHLLSFNAVDYFCFTNVFTTILIPYHILIVPSKKLGGSMFTANPWICISGELGETQILQIPRNVLEMTFECQNLGKLTTVQIGHDNSGLYAKWLVECVMVRNEVTGHTYKFPCGRWLGKGMDDGSLERVLVGELLTSLPEVDERPCRTPPLQQSPSVIR | soluble
8 | EIEKGGCGDPGIPAYGKRTGSSFLHGDTLTFECPAAFELVGERVITCQQNNQWSGNKPSC | soluble
9 | EKKQAEEALIRSENNFRTLAENSPDIISRFDRQNRHIYVNPAAEEPYGRPPEEIIGKTHSELGMDPEKVKLWESHHEKVFATGKPESMEFGYTSSQGKEYYFNTQVVPEFIDGKVTSILVISHNIT | not soluble
10 | EKPANRQQTLEILAQHIEMDGVRQFLSKSLFKNEDHMAWRFNVDSLLSNYAEIIGWQDIAPTEIPTLFIKGGDSDYLMPEHQPSVQRQFKQAKAHIIANTGHWLHAEKPAEVMRVIRKYISS | not soluble
11 | EKTVRVVINFKKTQKTIVRVSPHASLQELAPIICSKCEFDPLHTLLLKDYQSQEPLDLTKSLNDLGLRELYAMDVNRE | soluble
12 | EKVIIEKAAGDAEAIAFDGRTYMEYHNAVTKSPDALDYPAEPSEKALQSNHFELSIKTEATQGLILWSGKGLERSDYIALAIVDGFVQMMYDLGSKPVVLRSTVPINTNHWTHIKAYRVQREGSLQVGNEAPITGSSPLGATQLDTDGALWLGGMERLSVAHKLPKAYSTGFIGCIRDVIVDRQELHLVEDALNNPTILHCSAK | soluble
13 | EMTDLQSTHKDFLFEIEEVGIKNLVYPVLVDQYQTAGTFSFSTSLTKDEKGINMSRIIESVEKHYDNGIELEFNTLYQVLRTLQTNMKQNAAGVDVSGKWFFDRYSPTTNIKAVGNADVTYGLAIDGDKVTRKELTIEATVTTLCPCSKEISEYSAHNQRGVVTVKTYINKDQNIVDDYKNKILDAMEANASSILYPILKRPDEKRVTERAYENPRFVEDLIRLIAADLVEFDWLDGFDIECRNEESIHQHDAFAKLKYRK | not soluble
14 | ENILAGRAKAEKMRLSAERNRNQMEIYRSLQQGDECRKRQIHDYKNQLNCIRGLVDDNRTKEALRYIGQLTGSLNESIHQINTGHPVVNVLLNQKYQSAREQQISMTMTMNNLSELSLSEEDIVTLLANLLDNAIEACLKLHGDRRIQLKMVLEEEELFLSIRNPVEWEVKISGKTAAAAKEKSGEHGLGLGNVDAVIRKNRGRSTLQCQEGWFCFTAVILQPQR | not soluble
15 | EPLRVLELYSGVGGMHHALRESCIPAQVVAAIDVNTVANEVYKYNFPHTQLLAKTIEGITLEEFDRLSFDMILMSPPCQPFTRIGRQGDMTDSRTNSFLHILDILPRLQKLPKYILLENVKGFEVSSTRDLLIQTIENCGFQYQEFLLSPTSLGIPNSRLRYFLIAKLQSEPLPFQAPGQVLMEFPKIEIHRKNQQDSDLSVKMLKDFLEDDTDVNQYLLPPKSLLRYALLLDIVQPTCRRSVCFTKGYGSYIEGTGSVLQTAEDVQVENIYKSLTNLSQEEQITKLLILKLRYFTPKEIANLLGFPPEFGFPEKITVKQRYRLLGNSLNVHVVAKLIKILYE | soluble
16 | EPMQVVKQRRDAALNALVSGVPFIRFLNITFDRRGDELTGVLNFDDKLIGNPFLPAIHGGVTAAFLEVTAVITLSWAHLFERIESGDLAPEDILTDENMRFPKTIDFTIDYLRSGLPRDAYARAYISRAGRRYASVRVEAWQDHHDKLYAQGTGHFLMP | not soluble

Row | Sequence | soluble on expression in E. coli
17 | EQEMVQVFIPAQAVGAIIGKKGQHIKQLSRFASASIKIAPPETPDSKVRMVIITGPPEAQFKAQGRIYGKLKEENFFGPKEEVKLETHIRVPASAAGRVIGKGGKTVNELQNLTAAEVVVPRDQTPDENDQVIVKIIGHFYASQMAQRKIRDILAQVKQQHQK | soluble
18 | ESSVNPVVLDFEDGTVMSFGEAWGDSLKCIKKVSVSQDLQRPGNKYALRLDVEFNPNNGWDQGDLGTWIGGVVEGQFDFTGYKSVEFEMFIPYDEFSKSQGGFAYKVVINDGWKELGSEFNITANAGKKVKINGKDYTVIHKAFAIPEDFRTKKRAQLVFQFAGQNSNYKGPIYLDNVRIRPEDA | soluble
19 | ETELEQKAIDYDELERLNSTIVSNLNSGLITVTGDGRIRVFNRYAEALTGIGLAEAYDCHLFDVLPGFRVYADVLANVKRGEFEFIAKMGRKLTIGFSSVPLMLKDSDAAGILLNFQDVT | not soluble
20 | EVQLQQSGAELARPGASVKMSCKASGYTFTSYTMHWVKQRPGQGLEWIGYINPSSGYSNYNQKFKDKATLTADKSSSTAYMQLSSLTSEDSAVYYCSRPVVRLGYNFDYWGQGSTLTVSSAKTTPPSVYPLAPGSAAQTNSMVTLGCLVKGYFPEPVTVTWNSGSLSSGVHTFPAVLQSDLYTLSSSVTVPSSTWPSETVTCNVAHPASSTKVDKKIVP | soluble
21 | EVQLVESGGGLVKPGGSLRLSCAASGFTFSSYSMNWVRQAPGKGLEWVSSISSSSSYISYADSVKGRFTISRDNAKNSLYLQMNSLRAEDTAVYFCARDYDFWSAYYDAFDVWGQGTMVTVSSASTKGPSVFPLAPSSKSTSGGTAALGCLVKDYFPEPVTVSWNSGALTSGVHTFPAVLQSSGLYSLSSVVTVPSSSLGTQTYICNVNHKPSNTKVDKKVEPKSCAADEVDHHHHHH | soluble
22 | EVQLVESGGGLVQPGGSLRLSCAASGFTFTSTGISWVRQAPGKGLEWVGRIYPTNGSTNYADSVKGRFTISADTSKNTAYLQMNSLRAEDTAVYYCARTYGIYDLYVDYTEYVMDYWGQGTLVTVSSASTKGPSVFPLAPSSKSTSGGTAALGCLVKDYFPEPVTVSWNSGALTSGVHTFPAVLQSSGLYSLSSVVTVPSSSLGTQTYICNVNHKPSNTKVDKKVEPKSCDKTHT | soluble
23 | EVRLVSLRRAKAHEGLGFSIRGGSEHGVGIYVSLVEPGSLAEKEGLRVGDQILRVNDKSLARVTHAEAVKALKGSKKLVLSVYSAGRI | soluble
24 | EVVVTGMQKMDKRLFTGAATKLDAEGVKLNGMADISRGLEGRAAGVSVQNVSGTFGTAPKIRVRGATSIYGSSKPLWVVDGVIMEDAVEVSADQLSSGDAETLISSAIAGLNADDIESFQILKDGSATSIYGARAMAGVIVVTTKKGK | not soluble
25 | FASNWVSHTHEVIQTIDTCLYDIVEIESRQRFYLIRGSSSQLMADIDDMKSTLQLNLDKLEQLTRDNPEQNKRIHRFIDLVKQRLNLLNQLVQLKGSGKLDTQEGYDLLNQSQDMSHQVKSLGQEIKSVELVLLSERNTG | not soluble
26 | FINDVDLIITVEELDSFLEDQLLQLLGKHDISKTVYGKKNNIFPCCGEYSVDIVKTGINKVLDILKIQKIEISEKLIEKTDIIPLPVRPPNLCAGCMHRTVFYAFKEVSKDLKKQNIQIIFSGDIGCYTLGNAPPLELIDTCLCMGAGISLAGGI | not soluble
27 | FNKKEVLDLTSPKNSIRSRNKLRRTLRNIQERIEDELNHEREALIQDFDYRLAVTYDQMLKDSNIPFSVKDVMAFIEKHTGVRFG | soluble
28 | FNWDRAMYSLITYFLAYKVIDIVIQGVDESKSAFIISRYYEEIGAEIMEQLGKGVTYLDATGGYSGDVRKVVFVIVSRFEEVKVKAILDEIDPDAFLAVGGSMSEVRGGKLMNTKTPHL | not soluble
29 | FTANIKGLTQASRNANDGISIAQTTEGALNEINNNLQRVRELAVQSANSTNSQSDLDSIQAEITQRLNEIDRVSGQTQFNGVKVLAQDNTLTIQVGANDGETIDIDLKQINSQTLGLDTLNVQQKYKVSDTAATVTGYADTTIALDNSTFKASATGLGGTDQKIDGDLKFDDTTGKYYAKVTVTGGTGKDGYYEVSVDKTNGEVTLAGGATSPLTGGLPATATEDVKNVQVANADLTEAKAALTAAGVTGTASVVKMSYTDNNGKTIDGGLAVKVGDDYYSATQNKDGSISINTTKYTADDGTSKTALNKLGGADGKTEVVSIGGKTYAASKAEGHNFKAQPDLAEAAATTTENPLQKIDAALAQVDTLRSDLAAVQNRFNSAITNLGNTVNNLTSAR | soluble
30 | GAKQLSTARKFKMITGKDLFQQQKAMDTELKKEDGEITDLMEFVQYGLYLALFQDNIVKAKSDFSDFRSSFEFDTDGKGLKELVELWQKEI | soluble
31 | GAMAPATCEKPKFLEYKTCVGDLTVVIAKALDEFKEFCIVNAANEHMTHGSGVAKAIADFCGLDFVEYCEDYVKKHGPQQRLVTPSFVKGIQCVNNVVGPRHGDNNLHEKLVAAYKNVLVDGVVNYVVPVLSLGIFGVDFKMSIDAMREAFEGCTIRVLLFSLSQEHIDYFDVTCK | soluble
32 | GAMASLVVPNLMGNKDKADRQKVMSDLVALESTLDMYRLDNNRYPTTEQGLRALVSKPTVQPEPRNYRQDGYIRRLPQDPWGGDYQLLNPGQYSDIDIFSPGPDGVPNTEDDIGNWTLGNAQP | soluble
